Experimental data published in publication PMC6946805.

Target: Plasmodium yoelii erythrocyte-binding-like protein (PyEBL), C741 allele of P. yoelii nigeriensis strain N67C, HA::Flag-tagged (Plasmodium yoelii nigeriensis strain N67C)
Assay: co-IP; anti-HA antibody immunoprecipitation of HA-tagged PyEBL from supernatants and solubilized pellets of iRBCs of all parasite stages lysed with saponin (0.1%) and centrifuged (1,455 x g, 4°C, 10 min); Western blot of the precipitates with anti-band 3 or anti-TER119 antibody

B1: band 3 (natural protein)
chain: MGDMRDHEEVLEIPDRDSEEELENIIGQIAYRDLTIPVTEMQDPEALPTEQTATDYVPSSTSTPHPSSGQVYVELQELMMDQRNQELQWVEAAHWIGLEENLREDGVWGRPHLSYLTFWSLLELQKVFSKGTFLLGLAETSLAGVANHLLDCFIYEDQIRPQDREELLRALLLKRSHAEDLGNLEGVKPAVLTRSGGASEPLLPHQPSLETQLYCGQAEGGSEGPSTSGTLKIPPDSETTLVLVGRANFLEKPVLGFVRLKEAVPLEDLVLPEPVGFLLVLLGPEAPHVDYTQLGRAAATLMTERVFRITASMAHNREELLRSLESFLDCSLVLPPTDAPSEKALLNLVPVQKELLRRRYLPSPAKPDPNLYNTLDLNGGKGGPGDEDDPLRRTGRIFGGLIRDIRRRYPYYLSDITDALSPQVLAAVIFIYFAALSPAVTFGGLLGEKTRNLMGVSELLISTAVQGILFALLGAQPLLVLGFSGPLLVFEEAFFSFCESNNLEYIVGRAWIGFWLILLVMLVVAFEGSFLVQYISRYTQEIFSFLISLIFIYETFSKLIKIFQDYPLQQTYAPVVMKPKPQGPVPNTALFSLVLMAGTFLLAMTLRKFKNSTYFPGKLRRVIGDFGVPISILIMVLVDSFIKGTYTQKLSVPDGLKVSNSSARGWVIHPLGLYRLFPTWMMFASVLPALLVFILIFLESQITTLIVSKPERKMIKGSGFHLDLLLVVGMGGVAALFGMPWLSATTVRSVTHANALTVMGKASGPGAAAQIQEVKEQRISGLLVSVLVGLSILMEPILSRIPLAVLFGIFLYMGVTSLSGIQLFDRILLLFKPPKYHPDVPFVKRVKTWRMHLFTGIQIICLAVLWVVKSTPASLALPFVLILTVPLRRLILPLIFRELELQCLDGDDAKVTFDEENGLDEYDEVPMPV
band 3 signal divided by anti-HA signal, ratio N67C/N67, pellet fraction (fold (N67C over N67)): 3.3
band 3 signal divided by anti-HA signal, ratio N67C/N67, supernatant fraction (fold (N67C over N67)): 3.1
